Assays:
[1] = target: EV-D68 mature virion, strain US/MO/14-18947 (clade B) (enterovirus D68 strain US/MO/14-18947)
[2] = target: EV-D68 mature virion, strain US/MO/14-18947 (clade B) (enterovirus D68 strain US/MO/14-18947); experiment: BLI

Substance | IC50 of neutralization of EV-D68 strain 18947 on RD cells (cell viability, CellTiter-Glo) [1] | neutralization concentration (lowest antibody concentration that fully inhibits cytopathic effect) against strain 18947 [1] | Kd [2] | koff [2]
anti-EV-D68 MAb 8F12 (murine, IgG2b) (antibody) | 4 ng/mL | 0.06 µg/mL |  | 
anti-EV-D68 MAb 8F12 (murine, IgG2b) (from UniProt P01867) |  |  | 0.92 nM | 0.00035 s⁻¹

Reference: paper PMC8131599
